Assay [1] has as its target human LOX1 on cells (human LOX1 transfected CHO TREX cells) (human) (UniProt P78380). Description: competition with DyLight 649 oxLDL on human LOX1 CHO TREX cells, FMAT.
For assay [2] the target is unchanged. Briefly: competition with DyLight 649 AGE-BSA on human LOX1 CHO TREX cells, FMAT.
For assay [3] the target is unchanged. Briefly: cell-based or functional assay.
For assay [4], the target named is recombinant human LOX1 (R&D Systems) (human) (UniProt P78380). Briefly: competition with biotin CRP on plate-bound recombinant human LOX1, DELFIA.

With “23C11, commercially available mouse anti-LOX-1 antibody”, the figures for the IC50 (read off the curve) in assay [1], in assay [2] and in assay [4] were 3 nM, 2 nM and 10 nM, respectively. This substance gave an IC50 of inhibition of Cypher 5E oxLDL internalization in hLOX1 CHO TREX cells (row label not given; assay assigned by block order of Table 5) in assay [3] of 2.85 nM. Also, in assay [3], the IC50 of inhibition of oxLDL-dependent ROS generation in hLOX1 CHO TREX cells (row label not given; assay assigned by block order of Table 5) worked out at 10.1 nM.
